From patent CN114592010A

Molecular target: NK细胞自身的IL-15受体(IL15Rβγ) (UniProt P14784)
Assay: cell-based or functional assay

Chain of UniProt P14784 (P14784 27-551 limits assumed, chain 1 of 2): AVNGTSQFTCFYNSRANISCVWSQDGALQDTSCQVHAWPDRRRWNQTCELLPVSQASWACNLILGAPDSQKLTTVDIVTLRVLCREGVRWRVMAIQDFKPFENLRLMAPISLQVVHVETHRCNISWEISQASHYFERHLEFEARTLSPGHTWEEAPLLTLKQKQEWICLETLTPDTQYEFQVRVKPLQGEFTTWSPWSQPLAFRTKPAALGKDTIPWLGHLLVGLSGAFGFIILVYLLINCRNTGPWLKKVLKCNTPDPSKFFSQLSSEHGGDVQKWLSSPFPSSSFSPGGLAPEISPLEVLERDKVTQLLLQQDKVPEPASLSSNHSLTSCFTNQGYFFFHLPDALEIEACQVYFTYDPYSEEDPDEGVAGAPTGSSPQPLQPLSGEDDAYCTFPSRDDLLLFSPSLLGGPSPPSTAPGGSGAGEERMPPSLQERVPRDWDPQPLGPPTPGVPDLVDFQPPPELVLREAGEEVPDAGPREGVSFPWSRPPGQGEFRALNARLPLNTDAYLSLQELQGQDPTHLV
Chain of UniProt P14784 (P31785 23-369 limits assumed, chain 2 of 2, further chain): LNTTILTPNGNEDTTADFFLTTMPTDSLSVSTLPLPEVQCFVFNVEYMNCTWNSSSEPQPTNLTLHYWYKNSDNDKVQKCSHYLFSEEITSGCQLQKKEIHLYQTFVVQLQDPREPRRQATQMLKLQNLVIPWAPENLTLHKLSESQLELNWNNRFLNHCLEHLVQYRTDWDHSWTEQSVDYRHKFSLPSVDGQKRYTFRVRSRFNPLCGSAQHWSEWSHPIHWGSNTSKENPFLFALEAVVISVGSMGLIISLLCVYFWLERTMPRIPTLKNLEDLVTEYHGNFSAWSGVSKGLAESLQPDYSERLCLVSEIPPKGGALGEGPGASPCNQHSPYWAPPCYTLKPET

增殖效果 (CCK8), NKMB cells = 实施例3 NK-CAR(NK-CAR)-MbIL-15, 1d (relative to 0d = 1): 1.66
增殖效果 (CCK8), NKMB cells = 实施例3 NK-CAR(NK-CAR)-MbIL-15, 2d (relative to 0d = 1): 2.37
增殖效果 (CCK8), NKMB cells = 实施例3 NK-CAR(NK-CAR)-MbIL-15, 3d (relative to 0d = 1): 2.83
增殖效果 (CCK8), NKMB cells = 实施例3 NK-CAR(NK-CAR)-MbIL-15, 4d (relative to 0d = 1): 4.12
增殖效果 (CCK8), TMB cells = 实施例4 NK-CAR(T-CAR)-MbIL-15, 1d (relative to 0d = 1): 1.67
增殖效果 (CCK8), TMB cells = 实施例4 NK-CAR(T-CAR)-MbIL-15, 2d (relative to 0d = 1): 2.7
增殖效果 (CCK8), TMB cells = 实施例4 NK-CAR(T-CAR)-MbIL-15, 3d (relative to 0d = 1): 3.63
增殖效果 (CCK8), TMB cells = 实施例4 NK-CAR(T-CAR)-MbIL-15, 4d (relative to 0d = 1): 7.77
Substance: 膜结合型IL-15 (IL-15-CD8 hinge-CD8 TM融合蛋白) (ligand)
